In this series the target is His6-GanR (Bacillus subtilis 3610) (UniProt O07008). In words: EMSA. The conditions noted are these: 10 mM Tris-HCl (pH not stated), 50 mM NaCl, 1 mM EDTA, 5% glycerol, 1 mM DTT, 10 ug/ml BSA, on ice 20 min; Cy3 probes with poly-dIdC, gel 0.5X TBE at 4 C. On the technique in general: Mobility shift assays separate free from complexed probe on a gel.
His6-GanR (Bacillus subtilis 3610), sequence (O07008 whole entry): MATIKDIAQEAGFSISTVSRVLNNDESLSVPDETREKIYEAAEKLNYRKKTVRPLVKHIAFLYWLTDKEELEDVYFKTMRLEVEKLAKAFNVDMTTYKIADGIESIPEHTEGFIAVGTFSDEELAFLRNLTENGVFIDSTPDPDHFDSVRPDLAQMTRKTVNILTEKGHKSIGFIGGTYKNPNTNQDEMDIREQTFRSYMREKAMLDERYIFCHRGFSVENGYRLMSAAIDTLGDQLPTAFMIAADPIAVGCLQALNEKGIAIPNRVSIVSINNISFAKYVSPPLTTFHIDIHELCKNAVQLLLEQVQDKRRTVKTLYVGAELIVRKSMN

For the sequence “GTACGAATTCCCGCGCTGTATTCCGGCTTGAGAACAGCTTTTGAAAAGTAAGCTGTTTGGGAAAGTTAAATAATCTTTAATTCGAGATGTTTTACTTGAAAGTAAATTTCTTTGTCTCTATAATAAAGTCTAAGAGAGACAGAATAATCATTATGCATCTGTATGATAATAATTGATGTGTGATGGATCCGTAC (double strand) [PyvaB (yvaB promoter)]”, the binding entry is given as “no binding”.

For the origin of these results see PMC5472308, “Characterization of the regulation of a plant polysaccharide utilization operon and its role in biofilm formation in Bacillus subtilis” (PLoS ONE, 2017).
